# Reference: PMC7785802, “Therapeutic Efficacy of a Trichinella Spiralis Paramyosin-Derived Peptide Modified With a Membrane-Targeting Signal in Mice With Antigen-Induced Arthritis” (Frontiers in Microbiology, 2020)
# B1: human complement component C9 (natural protein)
# chain: not shown
# modifications: fluorescent probe NT-647 bound covalently (in the MST assay)
# notes: also called human C9
# Target: T1, original peptide (Trichinella spiralis paramyosin-derived tetradecapeptide, …) (Trichinella spiralis)
# T1 construct: also called Ts-pmy-derived peptide; original Ts-Pmy-derived peptide; source: synthetic peptide (solid-phase synthesis, GL Biochem; RP-HPLC purified up to 95%)
# T1 sequence (P02748 22-559): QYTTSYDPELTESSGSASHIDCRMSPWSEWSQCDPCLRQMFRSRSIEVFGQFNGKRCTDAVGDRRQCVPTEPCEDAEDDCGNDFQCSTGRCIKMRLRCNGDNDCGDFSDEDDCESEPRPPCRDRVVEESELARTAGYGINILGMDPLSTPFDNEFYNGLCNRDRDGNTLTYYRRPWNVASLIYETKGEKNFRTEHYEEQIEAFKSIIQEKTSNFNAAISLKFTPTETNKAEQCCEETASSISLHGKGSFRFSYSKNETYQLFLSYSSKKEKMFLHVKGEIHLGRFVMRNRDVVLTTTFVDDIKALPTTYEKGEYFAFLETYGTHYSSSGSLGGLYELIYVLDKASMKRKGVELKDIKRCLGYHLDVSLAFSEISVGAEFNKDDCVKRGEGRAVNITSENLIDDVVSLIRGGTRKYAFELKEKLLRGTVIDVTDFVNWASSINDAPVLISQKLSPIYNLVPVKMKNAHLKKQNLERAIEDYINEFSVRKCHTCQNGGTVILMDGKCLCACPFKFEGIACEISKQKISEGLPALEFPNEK
# Test: MST
# Details: both partners purified
binder,measurement,value
B1,binding result,binds
